Tests used:
[1] = target: ED-B fibronectin antigen protein (recombinant), bound to CNBr activated sepharose 4B (UniProt P02751); test: ED-B sepharose column, % of total radioactivity bound; Study A; methionine 5 mg/mL; day 5
[2] = target: ED-B fibronectin antigen protein (recombinant), bound to CNBr activated sepharose 4B (UniProt P02751); test: ED-B sepharose column, % of total radioactivity bound; Study B3; inositol 10 mg/mL; day 2
[3] = target: ED-B fibronectin antigen protein (recombinant), bound to CNBr activated sepharose 4B (UniProt P02751); test: ED-B sepharose column, % of total radioactivity bound; Study A; sodium thiosulfate 50 mg/mL; day 5
[4] = target: ED-B fibronectin antigen protein (recombinant), bound to CNBr activated sepharose 4B (UniProt P02751); test: ED-B sepharose column, % of total radioactivity bound; Study A; methionine 5 mg/mL; day 0
[5] = target: ED-B fibronectin antigen protein (recombinant), bound to CNBr activated sepharose 4B (UniProt P02751); test: ED-B sepharose column, % of total radioactivity bound; Study A; maltose 5 mg/mL; day 0
[6] = target: ED-B fibronectin antigen protein (recombinant), bound to CNBr activated sepharose 4B (UniProt P02751); test: ED-B sepharose column, % of total radioactivity bound; Study A; maltose 50 mg/mL; day 0
[7] = target: ED-B fibronectin antigen protein (recombinant), bound to CNBr activated sepharose 4B (UniProt P02751); test: ED-B sepharose column, % of total radioactivity bound; Study A; maltose 10 mg/mL; day 1
[8] = target: ED-B fibronectin antigen protein (recombinant), bound to CNBr activated sepharose 4B (UniProt P02751); test: ED-B sepharose column, % of total radioactivity bound; Study A; maltose 25 mg/mL; day 5
[9] = target: ED-B fibronectin antigen protein (recombinant), bound to CNBr activated sepharose 4B (UniProt P02751); test: ED-B sepharose column, % of total radioactivity bound; Study A; sodium thiosulfate 25 mg/mL; day 7
[10] = target: ED-B fibronectin antigen protein (recombinant), bound to CNBr activated sepharose 4B (UniProt P02751); test: ED-B sepharose column, % of total radioactivity bound; Study A; sodium thiosulfate 5 mg/mL; day 5
[11] = target: ED-B fibronectin antigen protein (recombinant), bound to CNBr activated sepharose 4B (UniProt P02751); test: ED-B sepharose column, % of total radioactivity bound; Study A; inositol 10 mg/mL; day 5
[12] = target: ED-B fibronectin antigen protein (recombinant), bound to CNBr activated sepharose 4B (UniProt P02751); test: ED-B sepharose column, % of total radioactivity bound; Study A; maltose 5 mg/mL; day 7
[13] = target: ED-B fibronectin antigen protein (recombinant), bound to CNBr activated sepharose 4B (UniProt P02751); test: ED-B sepharose column, % of total radioactivity bound; Study A; sodium thiosulfate 25 mg/mL; day 0
[14] = target: ED-B fibronectin antigen protein (recombinant), bound to CNBr activated sepharose 4B (UniProt P02751); test: ED-B sepharose column, % of total radioactivity bound; Study A; trolox 5 mg/mL; day 1
[15] = target: ED-B fibronectin antigen protein (recombinant), bound to CNBr activated sepharose 4B (UniProt P02751); test: ED-B sepharose column, % of total radioactivity bound; Study A; sodium thiosulfate 10 mg/mL; day 0
[16] = target: ED-B fibronectin antigen protein (recombinant), bound to CNBr activated sepharose 4B (UniProt P02751); test: ED-B sepharose column, % of total radioactivity bound; Study B3; human serum albumin 10 mg/mL; day 7
[17] = target: ED-B fibronectin antigen protein (recombinant), bound to CNBr activated sepharose 4B (UniProt P02751); test: ED-B sepharose column, % of total radioactivity bound; Study A; inositol 5 mg/mL; day 0
[18] = target: ED-B fibronectin antigen protein (recombinant), bound to CNBr activated sepharose 4B (UniProt P02751); test: ED-B sepharose column, % of total radioactivity bound; Study A; inositol 50 mg/mL; day 1
[19] = target: ED-B fibronectin antigen protein (recombinant), bound to CNBr activated sepharose 4B (UniProt P02751); test: ED-B sepharose column, % of total radioactivity bound; Study A; no-excipient control (saline); day 7
[20] = target: ED-B fibronectin antigen protein (recombinant), bound to CNBr activated sepharose 4B (UniProt P02751); test: ED-B sepharose column, % of total radioactivity bound; Study B3; ascorbic acid 25 mg/mL; day 7
[21] = target: ED-B fibronectin antigen protein (recombinant), bound to CNBr activated sepharose 4B (UniProt P02751); test: ED-B sepharose column, % of total radioactivity bound; Study A; maltose 5 mg/mL; day 5
[22] = target: ED-B fibronectin antigen protein (recombinant), bound to CNBr activated sepharose 4B (UniProt P02751); test: ED-B sepharose column, % of total radioactivity bound; Study B3; thioglycerol 10 mg/mL; day 2
[23] = target: ED-B fibronectin antigen protein (recombinant), bound to CNBr activated sepharose 4B (UniProt P02751); test: ED-B sepharose column, % of total radioactivity bound; Study B3; no-excipient control (PBS); day 7
[24] = target: ED-B fibronectin antigen protein (recombinant), bound to CNBr activated sepharose 4B (UniProt P02751); test: ED-B sepharose column, % of total radioactivity bound; Study B3; inositol 10 mg/mL; day 5
[25] = target: ED-B fibronectin antigen protein (recombinant), bound to CNBr activated sepharose 4B (UniProt P02751); test: ED-B sepharose column, % of total radioactivity bound; Study A; maltose 50 mg/mL; day 1
[26] = target: ED-B fibronectin antigen protein (recombinant), bound to CNBr activated sepharose 4B (UniProt P02751); test: ED-B sepharose column, % of total radioactivity bound; Study B3; thioglycerol 10 mg/mL; day 0
[27] = target: ED-B fibronectin antigen protein (recombinant), bound to CNBr activated sepharose 4B (UniProt P02751); test: ED-B sepharose column, % of total radioactivity bound; Study A; inositol 10 mg/mL; day 1
[28] = target: ED-B fibronectin antigen protein (recombinant), bound to CNBr activated sepharose 4B (UniProt P02751); test: ED-B sepharose column, % of total radioactivity bound; Study A; methionine 10 mg/mL; day 0

Chain of UniProt P02751 (P02751 1266-1356 limits assumed): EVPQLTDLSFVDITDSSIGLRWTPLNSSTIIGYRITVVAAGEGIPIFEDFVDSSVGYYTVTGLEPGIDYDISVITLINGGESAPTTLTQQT
Chain of 131I L19-SIP (radioiodinated L19 SIP homodimer) (chain): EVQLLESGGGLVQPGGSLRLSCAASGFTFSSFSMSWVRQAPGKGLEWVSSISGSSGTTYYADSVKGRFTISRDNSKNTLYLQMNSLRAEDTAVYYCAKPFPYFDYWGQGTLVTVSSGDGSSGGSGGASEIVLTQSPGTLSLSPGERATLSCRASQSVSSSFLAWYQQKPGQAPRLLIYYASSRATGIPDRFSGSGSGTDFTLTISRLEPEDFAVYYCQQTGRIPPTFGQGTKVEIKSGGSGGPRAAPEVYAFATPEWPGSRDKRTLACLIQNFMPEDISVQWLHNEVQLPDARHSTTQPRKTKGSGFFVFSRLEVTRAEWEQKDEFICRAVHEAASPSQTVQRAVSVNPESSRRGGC
Chain of 131I L19-SIP (radioiodinated L19 SIP homodimer) (chain): as above

Immunoreactivity (%) [1]: 62.6%
Immunoreactivity (IR) (%) [2]: 68.8%
Immunoreactivity (%) [3]: 91.5%
Immunoreactivity (%) [4]: 96.7%
Immunoreactivity (%) [5]: 89.1%
Immunoreactivity (%) [6]: 89.7%
Immunoreactivity (%) [7]: 85.4%
Immunoreactivity (%) [8]: 57.7%
Immunoreactivity (%) [9]: 78.5%
Immunoreactivity (%) [10]: 79.4%
Immunoreactivity (%) [11]: 58.9%
Immunoreactivity (%) [12]: 50%
Immunoreactivity (%) [13]: 96.4%
Immunoreactivity (%) [14]: 84.8%
Immunoreactivity (%) [15]: 96.2%
Immunoreactivity (IR) (%) [16]: 39.8%
Immunoreactivity (%) [17]: 94.8%
Immunoreactivity (%) [18]: 89.3%
Immunoreactivity (%) [19]: 43.7%
Immunoreactivity (IR) (%) [20]: 55.3%
Immunoreactivity (%) [21]: 57%
Immunoreactivity (IR) (%) [22]: 58.4%
Immunoreactivity (IR) (%) [23]: 28.2%
Immunoreactivity (IR) (%) [24]: 61.2%
Immunoreactivity (%) [25]: 85.9%
Immunoreactivity (IR) (%) [26]: 80.1%
Immunoreactivity (%) [27]: 89.5%
Immunoreactivity (%) [28]: 96.6%
Substance: 131I L19-SIP (radioiodinated L19 SIP homodimer)

— patent publication WO2011147762A2
